In assay [1] the target is CD44 (HCELL), native glycoprotein from human HSPCs (KG1a, CD34^pos fraction) (human) (UniProt P16070). Nature of the assay: SPR; CD44 captured from KG1a lysate on Hermes-3-mAb, E-Ig injected (3.9-2000 nM), 150 mM NaCl; steady-state model; 3rd experiment. In general terms: Surface plasmon resonance follows binding to a sensor surface in real time, without labels.
In assay [2] the target is T1, PSGL-1, native glycoprotein from human HSPCs (KG1a, CD34^pos-BM) (human, UniProt Q14242 42-412, native glycosylation and tyrosine sulfation).
T1 construct: mature; also called P-selectin glycoprotein ligand-1
T1 sequence (looked up): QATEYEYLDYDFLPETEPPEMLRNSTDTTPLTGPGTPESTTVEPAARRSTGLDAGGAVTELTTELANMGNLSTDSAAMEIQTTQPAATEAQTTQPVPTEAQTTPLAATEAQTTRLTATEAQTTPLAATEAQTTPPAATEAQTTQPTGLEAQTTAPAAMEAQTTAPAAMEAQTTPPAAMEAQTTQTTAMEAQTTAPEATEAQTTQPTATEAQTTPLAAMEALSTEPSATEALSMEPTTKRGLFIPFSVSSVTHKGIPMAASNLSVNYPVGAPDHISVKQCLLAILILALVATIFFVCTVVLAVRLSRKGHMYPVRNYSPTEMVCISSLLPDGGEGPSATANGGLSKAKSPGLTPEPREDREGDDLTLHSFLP
Nature of the assay: SPR; PSGL-1 captured from KG1a lysate on KPL-1-mAb, E-Ig injected, 150 mM NaCl; apparent rate constant; mean ± SEM.

Assay [3] concerns the target T1, PSGL-1, native glycoprotein from human …. As to the kind of experiment: SPR; PSGL-1 captured from KG1a lysate on KPL-1-mAb, E-Ig injected, 150 mM NaCl; apparent rate constant; 1st experiment.
Assay [4] has as its target T2, CD34, native glycoprotein from human HSPCs (KG1a, CD34^pos-BM, CD34^pos-UCB, CD34^pos-AML) (human, UniProt P28906 32-385, native glycosylation (about 120-130 kDa form); sialylated O-glycans and tyrosine sulfation are shown to matter for selectin binding).
T2 construct: mature; also called E-selL CD34
T2 sequence (looked up): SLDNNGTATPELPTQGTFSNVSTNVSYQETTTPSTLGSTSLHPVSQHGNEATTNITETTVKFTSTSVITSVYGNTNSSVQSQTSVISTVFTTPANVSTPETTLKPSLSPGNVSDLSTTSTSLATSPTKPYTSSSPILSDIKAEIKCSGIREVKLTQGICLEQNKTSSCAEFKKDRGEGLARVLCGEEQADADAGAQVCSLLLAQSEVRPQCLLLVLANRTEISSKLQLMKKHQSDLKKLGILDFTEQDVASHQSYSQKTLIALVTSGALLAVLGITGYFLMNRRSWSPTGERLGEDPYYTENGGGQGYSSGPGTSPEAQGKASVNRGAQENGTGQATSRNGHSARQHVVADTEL
As to the kind of experiment: SPR; CD34 captured from KG1a lysate on 563-mAb, E-Ig injected (3.9-2000 nM), 150 mM NaCl; steady-state model; 3rd experiment.

Assay [5] concerns the target T1, PSGL-1, native glycoprotein from human …. Nature of the assay: SPR; PSGL-1 captured from KG1a lysate on KPL-1-mAb, E-Ig injected, 150 mM NaCl; apparent rate constant; 2nd experiment.
Assay [6] addresses T3, CD43, native glycoprotein from KG1a cells (human, UniProt P16150 20-400, native glycosylation).
T3 construct: mature
T3 sequence (looked up): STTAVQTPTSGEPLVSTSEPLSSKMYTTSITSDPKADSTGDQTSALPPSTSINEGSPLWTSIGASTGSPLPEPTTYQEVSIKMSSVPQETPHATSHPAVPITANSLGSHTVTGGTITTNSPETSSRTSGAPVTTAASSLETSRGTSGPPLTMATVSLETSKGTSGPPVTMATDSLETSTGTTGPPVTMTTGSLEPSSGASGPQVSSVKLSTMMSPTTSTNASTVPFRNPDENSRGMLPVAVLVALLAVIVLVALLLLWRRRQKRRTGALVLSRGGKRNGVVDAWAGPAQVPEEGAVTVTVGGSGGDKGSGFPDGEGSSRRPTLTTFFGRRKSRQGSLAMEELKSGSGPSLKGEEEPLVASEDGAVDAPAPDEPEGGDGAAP
As to the kind of experiment: SPR; CD43 captured from KG1a lysate on polyclonal CD43 Ab, E-Ig injected, 150 mM NaCl; apparent rate constant; mean ± SEM.

For assay [7], the target named is T3, CD43, native glycoprotein from KG1a …. Nature of the assay: SPR; CD43 captured from KG1a lysate on polyclonal CD43 Ab, E-Ig injected, 150 mM NaCl; apparent rate constant; 2nd experiment.
For assay [8], the target named is CD44 (HCELL), native glycoprotein from human HSPCs (KG1a, CD34^pos fraction) (human) (UniProt P16070). As to the kind of experiment: SPR; CD44 captured from KG1a lysate on Hermes-3-mAb, E-Ig injected (3.9-2000 nM), 150 mM NaCl; steady-state model; 2nd experiment.
Assay [9] addresses T2, CD34, native glycoprotein from human …. As to the kind of experiment: SPR; CD34 captured from KG1a lysate on 563-mAb, E-Ig injected, 150 mM NaCl; apparent rate constant; 2nd experiment.
Assay [10] deals with T3, CD43, native glycoprotein from KG1a …. As to the kind of experiment: SPR; CD43 captured from KG1a lysate on polyclonal CD43 Ab, E-Ig injected (3.9-2000 nM), 150 mM NaCl; steady-state model; 2nd experiment.
For assay [11] the target is unchanged. As to the kind of experiment: SPR; CD43 captured from KG1a lysate on polyclonal CD43 Ab, E-Ig injected, 150 mM NaCl; apparent rate constant; 1st experiment.
The target in assay [12] is CD44 (HCELL), native glycoprotein from human HSPCs (KG1a, CD34^pos fraction) (human) (UniProt P16070). Nature of the assay: SPR, from the binding isotherm; CD44 captured from KG1a lysate.

From patent publication US20200199533A1 (KING ABDULLAH UNIVERSITY OF SCIENCE AND TECHNOLOGY, published 2020) come the findings set out here.

Chain of CD44 (HCELL), native glycoprotein from human HSPCs (KG1a, CD34^pos fraction) (human) (P16070 21-742): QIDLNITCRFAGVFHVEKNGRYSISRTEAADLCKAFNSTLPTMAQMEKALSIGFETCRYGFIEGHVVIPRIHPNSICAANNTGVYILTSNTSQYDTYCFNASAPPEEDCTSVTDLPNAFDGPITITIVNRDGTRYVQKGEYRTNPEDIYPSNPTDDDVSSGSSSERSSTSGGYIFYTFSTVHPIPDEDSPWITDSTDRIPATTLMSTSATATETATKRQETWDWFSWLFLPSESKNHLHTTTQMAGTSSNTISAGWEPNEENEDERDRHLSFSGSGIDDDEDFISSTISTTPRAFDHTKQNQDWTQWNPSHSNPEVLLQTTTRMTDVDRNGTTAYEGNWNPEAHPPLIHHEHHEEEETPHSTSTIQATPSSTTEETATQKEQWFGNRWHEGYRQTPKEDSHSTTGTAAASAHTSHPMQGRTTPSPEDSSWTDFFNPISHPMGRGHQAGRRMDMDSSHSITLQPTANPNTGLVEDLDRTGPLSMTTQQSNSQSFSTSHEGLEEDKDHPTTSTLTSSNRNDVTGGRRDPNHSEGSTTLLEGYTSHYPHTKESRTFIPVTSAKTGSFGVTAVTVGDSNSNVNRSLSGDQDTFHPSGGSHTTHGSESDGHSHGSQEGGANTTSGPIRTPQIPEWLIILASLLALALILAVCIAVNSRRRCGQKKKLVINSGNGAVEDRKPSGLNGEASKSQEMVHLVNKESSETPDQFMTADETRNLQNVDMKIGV

B1: recombinant E-selectin human immunoglobulin chimeric protein (Fc fusion)
chain: WSYNTSTEAMTYDEASAYCQQRYTHLVAIQNKEEIEYLNSILSYSPSYYWIGIRKVNNVWVWVGTQKPLTEEAKNWAPGEPNNRQKDEDCVEIYIKREKDVGMWNDERCSKKKLALCYTAACTNTSCSGHGECVETINNYTCKCDPGFSGLKCEQIVNCTALESPEHGSLVCSHPLGNFSYNSSCSISCDRGYLPSSMETMQCMSSGEWSAPIPACNVVECDAVTNPANGFVECFQNPGSFPWNTTCTFDCEEGFELMGAQSLQCTSSGNWDNEKPTCKAVTCRAVRQPQNGSVRCSHSPAGEFTFKSSCNFTCEEGFMLQGPAQVECTTQGQWTQQIPVCEAFQCTALSNPERGYMNCLPSASGSFRYGSSCEFSCEQGFVLKGSKRLQCGPTGEWDNEKPTCEAVRCDAVHQPPKGLVRCAHSPIGEFTYKSSCAFSCEEGFELHGSTQLECTSQGQWTEEVPSCQVVKCSSLAVPGKINMSCSGEPVFGTVCKFACPEGWTLNGSAARTCGATGHWSGLLPTCEAPTESNIP
By Kd is commonly meant the equilibrium constant for the complex coming apart. A lower Kd goes with tighter binding. Usually koff stands for the rate constant with which the complex falls apart. Broadly, the kon is the second-order rate constant of association. As to B1, the Kd is 214 nM in assay [1], 297 nM in [4], 252 nM in assay [8] and 376 nM in assay [10]. The koff in [2] came to 0.00019 s⁻¹; in assay [3] it was 0.00015 s⁻¹; in assay [5], 0.000165 s⁻¹; in assay [6] it was 0.00045 s⁻¹; in assay [7], 0.00042 s⁻¹; in assay [9], 0.00016 s⁻¹. Besides, the koff in assay [11] stood at 0.00048 s⁻¹. Also, the kon in assay [2] was determined as 793 M⁻¹ s⁻¹; in [3], 438 M⁻¹ s⁻¹; in [5], 797 M⁻¹ s⁻¹; in [7], 1060 M⁻¹ s⁻¹; in assay [9], 597 M⁻¹ s⁻¹; in assay [11], 944 M⁻¹ s⁻¹. The same molecule returned a % E-Ig binding assuming 1:1 stoichiometry in [12] of 23%.
